Measured values taken from the Human Domainome abundance scans (Beltran et al. 2025).
± gives the uncertainty stated by the source.

B1: Tyrosine-protein kinase Lck, residues 63 to 120; numbered along this chain, P06239 (parent)
chain: DNLVIALHSYEPSHDGDLGFEKGEQLRILEQSGEWWKAQSLTTGQEGFIPFNFVAKAN

Variants of: B1
Assay: abundance fitness (aPCA) (normalised: wild type 0, dead -1); higher = more abundant; growth selection in yeast, the domain comes from the species named
Settings: Homo sapiens

| Variant | abundance fitness |
| --- | --- |
| E11M | -0.409 ± 0.14 |
| E11P | -0.409 ± 0.13 |
| E11K | 0.206 ± 0.19 |
| E11F | -0.214 ± 0.18 |
| E11A | -0.137 ± 0.085 |
| E11N | -0.171 ± 0.16 |
| E11H | -0.156 ± 0.18 |
| E11S | -0.16 ± 0.11 |
| E11L | -0.164 ± 0.084 |
| E11W | -0.435 ± 0.11 |
| E11V | -0.05 ± 0.08 |
| E11Y | -0.363 ± 0.16 |
| E11Q | -0.199 ± 0.16 |
| E11G | -0.431 ± 0.066 |
| E11I | -0.177 ± 0.19 |
| E11T | 0.064 ± 0.12 |
| E11R | -0.145 ± 0.075 |
| E11C | -0.21 ± 0.12 |
| E11D | -0.116 ± 0.12 |
| K22F | -0.603 ± 0.17 |
| K22M | -0.514 ± 0.13 |
| K22Q | -0.371 ± 0.13 |
| K22R | -0.252 ± 0.074 |
| K22N | -0.777 ± 0.26 |

| Variant | abundance fitness |
| --- | --- |
| K22A | -0.174 ± 0.086 |
| K22G | -0.674 ± 0.086 |
| K22C | -0.303 ± 0.12 |
| K22H | -0.593 ± 0.2 |
| K22T | -0.187 ± 0.11 |
| K22I | -0.526 ± 0.21 |
| K22P | -0.801 ± 0.18 |
| K22W | -0.928 ± 0.13 |
| K22L | -0.625 ± 0.09 |
| H14L | -0.267 ± 0.082 |
| H14E | -0.051 ± 0.11 |
| H14D | -0.219 ± 0.14 |
| H14R | 0.039 ± 0.062 |
| H14F | -0.187 ± 0.15 |
| H14N | 0.12 ± 0.14 |
| H14S | -0.031 ± 0.088 |
| H14W | -0.328 ± 0.086 |
| H14Q | -0.079 ± 0.11 |
| H14K | 0.072 ± 0.11 |
| H14P | -0.793 ± 0.19 |
| H14I | -0.118 ± 0.15 |
| H14Y | -0.165 ± 0.1 |
| H14C | -0.033 ± 0.12 |
| H14V | -0.104 ± 0.071 |

| Variant | abundance fitness |
| --- | --- |
| H14G | -0.059 ± 0.072 |
| H14A | 0.027 ± 0.077 |
| S13Y | -0.18 ± 0.11 |
| S13A | -0.177 ± 0.11 |
| S13N | -0.061 ± 0.2 |
| S13D | -0.062 ± 0.12 |
| S13E | -0.096 ± 0.095 |
| S13C | -0.047 ± 0.1 |
| S13G | -0.251 ± 0.07 |
| S13M | -0.026 ± 0.13 |
| S13P | -0.358 ± 0.094 |
| S13K | 0.171 ± 0.11 |
| S13Q | -0.034 ± 0.12 |
| S13F | -0.412 ± 0.11 |
| S13I | -0.215 ± 0.14 |
| S13V | -0.097 ± 0.074 |
| S13T | 0.047 ± 0.083 |
| S13H | -0.174 ± 0.15 |
| F20T | -0.406 ± 0.16 |
| F20D | -0.845 ± 0.2 |
| F20Y | -0.756 ± 0.37 |
| F20R | -0.976 ± 0.11 |
| F20I | -0.47 ± 0.26 |
| F20G | -0.921 ± 0.087 |

| Variant | abundance fitness |
| --- | --- |
| F20C | -0.541 ± 0.14 |
| F20Q | -0.825 ± 0.17 |
| F20A | -0.52 ± 0.096 |
| F20V | -0.222 ± 0.072 |
| F20M | -0.293 ± 0.14 |
| F20N | -0.7 ± 0.33 |
| F20L | -0.411 ± 0.11 |
| F20P | -0.818 ± 0.21 |
| F20H | -0.836 ± 0.49 |
| F20K | -0.705 ± 0.22 |
| F20W | -1.04 ± 0.19 |
| F20S | -0.949 ± 0.15 |
| S9E | -0.218 ± 0.1 |
| S9H | -0.254 ± 0.15 |
| S9Y | -0.619 ± 0.16 |
| S9P | -0.166 ± 0.12 |
| S9K | 0.017 ± 0.14 |
| S9F | -0.798 ± 0.13 |
| S9G | -0.116 ± 0.077 |
| S9M | -0.473 ± 0.13 |
| S9W | -0.923 ± 0.15 |
| S9T | -0.046 ± 0.12 |
| S9Q | -0.276 ± 0.14 |
| S9A | -0.235 ± 0.12 |

| Variant | abundance fitness |
| --- | --- |
| S9V | -0.676 ± 0.11 |
| S9L | -0.84 ± 0.12 |
| S9I | -0.888 ± 0.2 |
| S9C | -0.25 ± 0.12 |
| S9N | 0.045 ± 0.12 |
| S9R | -0.11 ± 0.072 |
| L18D | -0.779 ± 0.12 |
| L18S | -0.884 ± 0.12 |
| L18Y | -0.725 ± 0.17 |
| L18M | -0.295 ± 0.11 |
| L18V | -0.441 ± 0.076 |
| L18F | -0.449 ± 0.18 |
| L18T | -0.714 ± 0.15 |
| L18I | -0.176 ± 0.1 |
| L18G | -0.717 ± 0.098 |
| L18Q | -0.876 ± 0.17 |
| L18K | -0.946 ± 0.31 |
| L18A | -0.591 ± 0.086 |
| L18E | -0.757 ± 0.11 |
| L18R | -0.86 ± 0.12 |
| L18W | -0.978 ± 0.25 |
| L18C | -0.898 ± 0.21 |
| L18N | -0.722 ± 0.17 |
| L18H | -0.732 ± 0.16 |

| Variant | abundance fitness |
| --- | --- |
| G16C | -0.241 ± 0.097 |
| G16A | -0.366 ± 0.09 |
| G16K | -0.362 ± 0.13 |
| G16F | -0.309 ± 0.14 |
| G16H | -0.114 ± 0.12 |
| G16P | -1.03 ± 0.23 |
| G16I | -0.322 ± 0.15 |
| G16S | -0.174 ± 0.074 |
| G16Y | -0.218 ± 0.18 |
| G16E | -0.247 ± 0.1 |
| G16M | -0.259 ± 0.11 |
| G16T | -0.152 ± 0.11 |
| G16V | -0.328 ± 0.081 |
| E24V | -0.835 ± 0.1 |
| E24Y | -0.829 ± 0.29 |
| E24L | -0.999 ± 0.13 |
| E24A | -0.357 ± 0.093 |
| E24K | -0.82 ± 0.16 |
| E24D | -0.095 ± 0.11 |
| E24P | -0.891 ± 0.15 |
| E24C | -0.628 ± 0.12 |
| E24I | -0.758 ± 0.29 |
| E24R | -0.902 ± 0.12 |
| E24N | -0.608 ± 0.29 |

| Variant | abundance fitness |
| --- | --- |
| E24G | -0.725 ± 0.076 |
| E24F | -0.997 ± 0.24 |
| E24Q | -0.385 ± 0.13 |
| E24S | -0.506 ± 0.094 |
| E24W | -0.704 ± 0.13 |
| E24M | -0.673 ± 0.15 |
| E24H | -0.774 ± 0.15 |
| E24T | -0.754 ± 0.16 |
| Q25V | -0.017 ± 0.073 |
| Q25A | -0.165 ± 0.089 |
| Q25S | -0.053 ± 0.088 |
| Q25K | 0.09 ± 0.12 |
| Q25D | -0.357 ± 0.14 |
| Q25Y | -0.047 ± 0.18 |
| Q25W | -0.169 ± 0.1 |
| Q25C | -0.096 ± 0.13 |
| Q25H | -0.143 ± 0.27 |
| Q25T | 0.078 ± 0.13 |
| Q25M | 0.022 ± 0.13 |
| Q25E | -0.021 ± 0.11 |
| Q25I | -0.181 ± 0.13 |
| Q25P | -0.276 ± 0.12 |
| Q25N | 0.069 ± 0.21 |
